The data set addresses HA-ZFP-5475-KOX1 (Artificial). The data set is described as follows: ChIP with anti-HA in HEK293 cells, relative to GAPDH control; GFP-KOX and non-specific ZFP TF gave no significant enrichment. The protocol:
FIG. 2A is a graph depicting repression of CHK2 expression by ZFP-5475 in cultured cells. Black bars show mRNA levels upon administration of 250 ng of plasmid. Gray bars shown mRNA levels upon administration of 62.5 ng of plasmid and the white bars show mRNA levels upon administration of 15 ng of plasmid. HEK293 cells transfected with the plasmids indicated were assayed for CHK2 mRNA by quantitative RT-PCR (TaqMan) after 72 hrs. The CHK2 mRNA levels were normalized relative to an internal control of GAPDH mRNA, and are expressed as this ratio. Charts represent data from a minimum of two independent experiments, with means and standard deviations shown. Transfection efficiency was assessed in each independent experiment via the use of a GFP expression plasmid control, in all experiments an apparent efficiency of 80-90% GFP positive cells was observed. FIG. 2B is a graph depicting binding of ZFP-5475 to its intended target site within the CHK2 promoter in vivo. […] Enrichment was quantified by RT-PCR Results are expressed as the fold-increase of the ratio to the GAPDH control relative to the results for non-transfected cells, the value of which is arbitrarily set to 1. The same samples were analyzed with primers specific for the p16 locus as a second internal control (open bars). […]

B1: CHK2 promoter ZFP-5475 target site (dsDNA)
DNA 1: ACCCGGGTTCCCCTCGGG
DNA 2: CCCGAGGGGAACCCGGGT
As for B1, the binding signal was ~65 fold enrichment.

The values above are taken from US7407776, “Engineered zinc finger proteins for regulation of gene expression” (Sangamo Biosciences, Inc.).
